Experimental data: a protein production outcome set (Wang et al. 2014)

Experiment: label from the status in PepcDB records

Sequence	protein production
MAAKRLAVLCIFLLPNTQFRQLRLAETAEELPQLLREAEKASWTYLEFLESITRYELAKREAKSLEKRMKWARFPFVKSLDEFELRGQNVLTARQLSQLRELSWLEQQYNLILLGPPGIGKTYIAIGLGLEAVYRGFHVYFATMGELVQLLKSEEYLNKSKVQLKRIRNADLVIIDDLMYMAMDQREANLFFHLINHLYERSSIILTSNKSPEEWGHLIGDQGITTAILDRLLHRVEVIHGGENEESHRMKNRKSIFSAEVLEHHHHHH	failed
MSASICCRCNEKIWPRAVCSLGKTYHPHHFTCKECGLVVDPKLFFAVDDDVVCSECYLDKHAARCSACRTPILERGVAAAERKWHEKCFRCVSCSKSLVSASFFEVNGYLFCKAHFRELFSSRCAGCEKPIDRRAVVALSTKWHAKCFKCHHCRKRISAREFWIENGQPICAACQTVVPSPRNLSAQ	failed
MNEVKAVWIRQWFPGLYQFKDYQRGWLTDDVRAAFSVVAVALPVAIAYAQLTGVPAIVGLYSCVLPMLVYALMGTSRQLIVGPDAATCAVIAAVVTPLAAGDTTKHWQLVMTMTAMTGFWCILASRLKLGIFADFLSRPILLGLLNGVALTIIVGQFAKVLGLKYEKRYLLERIVEAPELLYSLHWQTLGLSALTLAIYLVIKRWQPRWPAAMFAIMVAALLVWALNLESVGVQVVGVIQGGLPEFQAPAFDLGISRELVMPALNLAMVSFVSMMLTARSFAAKNGYDIDADKEFRALGVANVAAAFSQGFAISGADSRTAVNDANGGKSQLVSVIAALFIALVAVFAYQPLQFIPVAALGVVLIIASLSLLDLKGVWNLRKRDKDAFYLALITFIAVLVIGVIPGITLAVLLGLFQFLKLVMRPTDQMMGLDEEGTLRTLDGSEKAKPIPGMVIFRFNSPLTYFNAPYFKRRILDQTEREGAQVGCVIIDAVASFTHLDLSVMAMLADLHGILKKRGIRLILAGRKRSLRHWCDLTGINTAEGGIVLRADMYLAIKLSGCYLSAMEEGHVPVVQKEPDISVLLKPTTTEVA	failed
MEQSLGSKQNLGSKQNQITKPHKLVLDNRKRTNLTGIEDVVEFDTTQIVLESSMGMLVIKGADLKITRLSIEKGEADIDGSVNSVIYSQIKNYGEKGKSVLKRMFS	failed
MSKAKAPINTDELKQKYGRVYEIRIEGLEYENGEEAEFVFYFTRPKVSDISRFTKELNSKPDMAMKNLTFSCIVPEQEEELRQAAEEFPGLTFNTASRLMEIVGASAATSLKKL	not failed
MSIEPDGTVNRPEENIHLLQLHDSPVMRWLYLSIGMTALFMGILGIFLPILPTTPFILLAAGCFARSSERFHSYLLNHRIAGPIIREWCEYRSVARHVKRWAYLVMALSFGSSILIVSSWWLKGMLALLAMILFTFIWRLPVRDQSR	failed
MHCALLYSGGKDSTLAALLLDPFYDVTLVSGSFGVRDTDPAQESATAVGFDHVTVDLDPDVAHDAVKQMFDDGYPRNGIQRVHEHAVETVARADWVADADGLGTLDAVADGTRRDDRVPTVDRPLAQSIEDRFDVDYLAPLAGIGRGAIDAMAADRLVVESGPSAEIPKADYEVELRALLRKRYGEGAVADVFPEHTQSRVQGLR	failed
MRSDGRKEDQLRPVSIQRDFLEYPEGSCLISFGKTKVICTASVIENVPNWLKGKGQGWITAEYSMLPRATQQRTIRESVQGRIGGRTHEIQRMIGRAMRTAVELTKIGERTIWVDCDVIQADGGTRTAAITGAFVAVADAIIKLHKEGIIEETPIKDFVAAVSVGIVNDRILLDLNFEEDSAAQVDMNVVGTGSGRLSEVHTMGEEYSFTKDELIKMLDLAQKGINELIELQKKLYVIQDGKWERSELKEVSSTT	not failed
MGTGGITSNAHVVSPTWHHKHVPPMDDDSVLQRDIGELLSRWGGLQMAVKNQWGGHDSLKKSQELAHNLFHLISQSNGSIFFLLL	failed
MNLKDLLAHRENLMDSAKRARSAITDDMDPADAAQAVENVKSIISEIESTDEAIAARRGVSDVTQKLKGLTITERGTENDSAASRSLGEHFVKAAGDRLKNQAAGAHIEYSVPEYQVKEDAHSSPKDLVEGWGTFYQR	not failed
